# Columns and labels:
# [1] = target: T1, TIA1 full-length (fl TIA1) (Mus musculus, UniProt P52912 1-386); assay: ITC
# T1 sequence: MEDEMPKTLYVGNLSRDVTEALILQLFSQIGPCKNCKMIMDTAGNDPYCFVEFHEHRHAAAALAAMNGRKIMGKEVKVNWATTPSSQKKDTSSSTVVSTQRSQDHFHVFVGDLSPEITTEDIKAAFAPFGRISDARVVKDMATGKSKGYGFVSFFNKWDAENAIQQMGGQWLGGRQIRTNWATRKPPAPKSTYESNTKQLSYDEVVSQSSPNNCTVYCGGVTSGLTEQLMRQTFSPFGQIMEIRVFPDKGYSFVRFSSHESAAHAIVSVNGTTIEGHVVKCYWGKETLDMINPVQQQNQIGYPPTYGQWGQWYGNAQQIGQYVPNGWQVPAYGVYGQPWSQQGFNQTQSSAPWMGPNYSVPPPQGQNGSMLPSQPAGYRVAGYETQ
# [2] = target: T1, TIA1 full-length (fl TIA1); assay: solid-state NMR
Binder,Kd [1],binding result [2]
TTTTTACTCC (ssDNA) [TC1],263 ± 60 nM,–
TTTTTACTCCAAAAAAAATTTTTACTCCAAAAAAAATTTTTACTCC (ssDNA) [(TC1-A8)2-TC1],–,binds
